Data set [1] has as its target T1, human O-GlcNAc hydrolase (hOGA) (Homo sapiens, UniProt O60502, DEL397-534).
T1 sequence (O60502 11-396): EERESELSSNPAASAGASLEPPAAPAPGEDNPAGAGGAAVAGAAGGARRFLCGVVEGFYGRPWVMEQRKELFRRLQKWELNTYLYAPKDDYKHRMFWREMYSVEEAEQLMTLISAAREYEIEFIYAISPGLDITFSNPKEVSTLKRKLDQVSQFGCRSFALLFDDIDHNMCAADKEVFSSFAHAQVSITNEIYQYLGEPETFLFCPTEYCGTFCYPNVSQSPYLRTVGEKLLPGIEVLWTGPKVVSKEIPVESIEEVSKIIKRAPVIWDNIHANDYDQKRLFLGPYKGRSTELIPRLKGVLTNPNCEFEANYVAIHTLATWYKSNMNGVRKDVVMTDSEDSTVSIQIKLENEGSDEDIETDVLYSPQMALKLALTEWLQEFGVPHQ
T1 sequence (O60502 535-715): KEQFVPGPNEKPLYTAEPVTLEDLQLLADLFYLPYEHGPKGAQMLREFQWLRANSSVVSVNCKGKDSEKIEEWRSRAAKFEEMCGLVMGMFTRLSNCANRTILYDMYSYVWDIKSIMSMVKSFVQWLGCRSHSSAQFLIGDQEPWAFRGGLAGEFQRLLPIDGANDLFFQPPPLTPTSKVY
The data set can be described thus: X-ray crystal structure. It counts as biochemical. Conditions: cited from earlier work.

Data set [2] has as its system CC(=O)N[C@H]1[C@H](Oc2ccc([N+](=O)[O-])cc2)O[C@H](CO)[C@@H](O)[C@@H]1O. The data set can be described thus: purified protein.
The data set “SEC-MALS” deals with the molecule itself. Kind of data set: SEC-MALS. (Size exclusion chromatography separates by hydrodynamic size, large species first.)

The Ki is a measure of affinity in units of concentration, obtained from inhibition or displacement. In the case of PUGNAc-imidazole, the Ki in data set [1] was 3.9 µM.

Usually Km stands for the substrate concentration at which the rate is half of its maximum. Consider “human O-GlcNAc hydrolase (hOGA) (Homo sapiens; DEL397-534)”, for which the Km in data set [2] came to 40.93 µM.

B1: hOGA Split1 (co-expressed fragments 11-396 and 535-715) (complex, human)
chain 1: T1 sequence (O60502 11-396)
chain 2: T1 sequence (O60502 535-715)
As usually defined, the stoichiometry N is the number of molecules, sites or subunits per partner or assembly. Take B1: in “SEC-MALS”, the “stoichiometry N” value was 2.

B2: near full-length hOGA (His(6)9-916) (enzyme, human, UniProt O60502 9-916, looked up)
chain: TLEERESELSSNPAASAGASLEPPAAPAPGEDNPAGAGGAAVAGAAGGARRFLCGVVEGFYGRPWVMEQRKELFRRLQKWELNTYLYAPKDDYKHRMFWREMYSVEEAEQLMTLISAAREYEIEFIYAISPGLDITFSNPKEVSTLKRKLDQVSQFGCRSFALLFDDIDHNMCAADKEVFSSFAHAQVSITNEIYQYLGEPETFLFCPTEYCGTFCYPNVSQSPYLRTVGEKLLPGIEVLWTGPKVVSKEIPVESIEEVSKIIKRAPVIWDNIHANDYDQKRLFLGPYKGRSTELIPRLKGVLTNPNCEFEANYVAIHTLATWYKSNMNGVRKDVVMTDSEDSTVSIQIKLENEGSDEDIETDVLYSPQMALKLALTEWLQEFGVPHQYSSRQVAHSGAKASVVDGTPLVAAPSLNATTVVTTVYQEPIMSQGAALSGEPTTLTKEEEKKQPDEEPMDMVVEKQEETDHKNDNQILSEIVEAKMAEELKPMDTDKESIAESKSPEMSMQEDCISDIAPMQTDEQTNKEQFVPGPNEKPLYTAEPVTLEDLQLLADLFYLPYEHGPKGAQMLREFQWLRANSSVVSVNCKGKDSEKIEEWRSRAAKFEEMCGLVMGMFTRLSNCANRTILYDMYSYVWDIKSIMSMVKSFVQWLGCRSHSSAQFLIGDQEPWAFRGGLAGEFQRLLPIDGANDLFFQPPPLTPTSKVYTIRPYFPKDEASVYKICREMYDDGVGLPFQSQPDLIGDKLVGGLLSLSLDYCFVLEDEDGICGYALGTVDVTPFIKKCKISWIPFMQEKYTKPNGDKELSEAEKIMLSFHEEQEVLPETFLANFPSLIKMDIHKKVTDPSVAKSMMACLLSSLKANGSRGAFCEVRPDDKRILEFYSKLGCFEIAKMEGFPKDVVILGRSL
B2: the “stoichiometry N” value in the data set “SEC-MALS” turned out to be 2.
